Where two headings read alike, the source gives them in different places.
Experiments:
[1] = molecular target: T1, GRPR (Homo sapiens, UniProt P30550); assay: Fluorometric intracellular calcium release assay in PC-3 cells; format: cell-based; conditions: for Ca2+ mobilization, relative fluorescence units (RFUs = max − min): 50 nM ligand, FLIPR Calcium 6, signal acquired 2 min, n = 3
T1 construct: host or cells: PC-3 human prostate adenocarcinoma cells
Experimental: The antagonist/agonist characteristics of Ga-LW02075 and Ga-LW02050 were determined following previously published procedures. A 96-well clear-bottomed black plate was seeded with 5 × 10^4 PC-3 cells/well in 100 μL growth media 24 h prior to the assay. A calcium-sensitive dye (FLIPR Calcium 6 assay kit from Molecular Devices, San Jose, CA, USA) dissolved in the loading buffer (100 μL/well) was added into the plate followed by 1 h incubation at 37 °C. Then, the plate was transferred into a FlexStation 3 microplate reader (Molecular Devices, San Jose, CA, USA) to record the fluorescent signals. Ga-complexed SB3 derivatives (50 nM), [D-Phe^6,Leu-NHEt^13,des-Met^14]Bombesin(6-14) (50 nM, antagonist control), bombesin (50 nM, agonist control), adenosine triphosphate (ATP, 50 nM, positive control), or DPBS (blank control) were added. The fluorescent signals were acquired for 2 min (λEx = 485 nm; λEm = 525 nm; n = 3). The relative fluorescent units (RFUs = max − min) were calculated to determine the agonistic/antagonistic characteristics of the tested ligands.

[2] = Ex vivo biodistribution in PC-3 tumor-bearing mice; conditions: male, mouse, iv, total radioactivity, 1 h post injection, mean ± SD, n = 4; for tissue uptake at 1 h: NOD.Cg-Rag1^tm1Mom Il2rg^tm1Wjl/SzJ (NRG); for tissue to tissue ratio at 1 h: NOD.Cg-Rag1tm1Mom Il2rgtm1Wjl/SzJ (NRG)
Experimental: Biodistribution studies were conducted for ^68Ga-labeled SB3, LW02075 and LW02050 in PC-3 tumor-bearing mice (n = 4).
(§1) Imaging and biodistribution studies were performed on male NOD.Cg-Rag1^tm1Mom Il2rg^tm1Wjl/SzJ (NRG) mice following previously published procedures. The experiments were conducted following the guidelines established by the Canadian Council on Animal Care and approved by Animal Ethics Committee of the University of British Columbia. The mice were sedated (2.5% isoflurane in oxygen) and injected with 5 × 10^6 PC-3 cells (100 µL; 1:1 PBS/Matrigel) subcutaneously behind the left shoulder. The tumor-bearing mice were used for PET/CT imaging and biodistribution studies when the tumor grew to 5–8 mm in diameter.
For biodistribution studies, the mice were injected with the radiotracer (~2–4 MBq), as described above. Blocking of [^68Ga]Ga-LW02075 and [^68Ga]Ga-LW02050 was conducted by co-injection with 100 μg nonradioactive Ga-LW02075 and Ga-LW02050, respectively, through a lateral caudal tail vein under anaesthesia. At 1 h post injection, the mice were sedated and euthanized by CO2 inhalation. Blood was collected via cardiac puncture, and organs/tissues of interest were collected, weighed, and counted on a Perkin Elmer (Waltham, MA, USA) Wizard2 2480 automatic gamma counter.

[3] = physchem; conditions: n-octanol/DPBS, pH 7.4
Experimental: LogD7.4 values of [^68Ga]Ga-LW02075, [^68Ga]Ga-LW02050, and [^68Ga]Ga-SB3 were measured via the shake flask method. An aliquot of the ^68Ga-labeled tracer (~1.85 MBq) was added to a 15 mL falcon tube containing 3 mL of n-octanol and 3 mL of DPBS (pH 7.4) followed by 1 min of vortex (n = 3). After that, the mixture was centrifuged at 5000 rpm for 10 min, and samples of the n-octanol (1 mL) and buffer (1 mL) layers were collected and counted on a Perkin Elmer (Waltham, MA, USA) Wizard2 2480 automatic gamma counter. The LogD7.4 values of [^68Ga]Ga-LW02075, [^68Ga]Ga-LW02050, and [^68Ga]Ga-SB3 were calculated following the equation: LogD7.4 = log10[(counts in the n-octanol phase)/(counts in the buffer phase)].

[4] = system: PC-3 tumor xenografts; assay: PET/CT imaging in mice bearing PC-3 tumor xenografts; format: in vivo; conditions: 1 h post injection, mice
Experimental: as §1
PET/CT imaging experiments were performed on a Siemens (Knoxville, TN, USA) Inveon micro PET/CT scanner. Each tumor-bearing mouse was injected with ~3–6 MBq of ^68Ga-labeled tracer through a lateral caudal tail vein under anaesthesia. At around 50 min post injection, a 10 min CT scan was obtained first for localization and attenuation correction after segmentation for reconstructing the PET image, followed by a 10 min static PET scan.

[5] = molecular target: GRPR; conditions: ref 14 (Devin et al.); cited from earlier work
From the text: Most of the reported GRPR-targeted agonist and antagonist sequences contain a C-terminal amide. […] To the best of our knowledge, no GRPR-targeted radioligands containing a C-terminal hydroxamate have ever been reported. Therefore, the goal of this study was to evaluate the potential of C-terminal hydroxamate- ...

[6] = molecular target: T1, GRPR; assay: In vitro competition binding assay, displacement of [125I-Tyr4]Bombesin from PC-3 cells; conditions: GRPR-expressing PC-3 cells, 0.01 nM [125I-Tyr4]Bombesin, 1 h at 37 °C, ligand 10 μM to 1 pM, n = 3
Experimental: The Ki values of Ga-LW02075, Ga-LW02050, and Ga-SB3 were measured using GRPR-expressing PC-3 prostate cancer cells via a cell-based competition binding assay. Ga-SB3, Ga-LW02075, and Ga-LW02050 inhibited the binding of [^125I-Tyr^4]Bombesin towards PC-3 cells in a dose-dependent manner (Figure 2).
Inhibition constants (Ki) of Ga-SB3, Ga-LW02075, and Ga-LW02050 toward GRPR were measured by in vitro competition binding assay following previously published procedures. The assays were conducted in triplicate with varied concentrations (10 μM to 1 pM) of Ga-SB3, Ga-LW02075, and Ga-LW02050. Briefly, 2 × 10^5 cells/well of PC-3 cells were seeded in 24-well poly-D-lysine plates 24 h prior to the assay. The growth medium was replaced with 400 μL of reaction medium (RPMI 1640 containing 2 mg/mL bovine serum albumin (BSA) and 20 mM HEPES), followed by 1 h incubation at 37 °C. The tested ligands in 50 μL reaction medium and 0.01 nM [^125I-Tyr^4]Bombesin in 50 μL reaction medium were added into the wells, and then incubated at 37 °C with moderate agitation for 1 h. […] Data analysis was performed using nonlinear regression with GraphPad (San Diego, CA, USA) Prism 10 software (Version 10.1.1).

T1 sequence (P30550 whole entry): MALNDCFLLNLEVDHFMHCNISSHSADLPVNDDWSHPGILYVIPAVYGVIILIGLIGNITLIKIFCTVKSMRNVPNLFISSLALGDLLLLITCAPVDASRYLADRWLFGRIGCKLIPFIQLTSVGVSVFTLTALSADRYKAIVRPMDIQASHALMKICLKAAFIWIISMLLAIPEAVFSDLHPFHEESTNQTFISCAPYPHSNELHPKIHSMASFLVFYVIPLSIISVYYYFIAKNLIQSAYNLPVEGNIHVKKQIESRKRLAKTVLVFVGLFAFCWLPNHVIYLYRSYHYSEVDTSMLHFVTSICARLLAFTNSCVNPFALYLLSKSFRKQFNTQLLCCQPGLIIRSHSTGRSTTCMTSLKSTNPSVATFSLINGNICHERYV

**Q.** For Nc1ncnc2c1ncn2[C@@H]1O[C@H](COP(=O)(O)OP(=O)(O)OP(=O)(O)O)[C@@H](O)[C@H]1O [ATP, adenosine triphosphate], which “Ca2+ mobilization, relative fluorescence units (RFUs = max − min)” value [1] is on record?
**A.** 271 ± 24.4 RFUs

**Q.** For CCNC(=O)[C@H](CC(C)C)NC(=O)[C@H](Cc1c[nH]cn1)NC(=O)CNC(=O)[C@@H](NC(=O)[C@H](C)NC(=O)[C@H](Cc1c[nH]c2ccccc12)NC(=O)[C@H](CCC(N)=O)NC(=O)[C@@H](Cc1ccccc1)NC(=O)COCC(=O)Nc1ccc(CNC(=O)CN2CCN(CC(=O)O)CCN(CC(=O)O)CCN(CC(=O)O)CC2)cc1)C(C)C [[^68Ga]Ga-SB3, [^68Ga]Ga-DOTA-pABzA-DIG-D-Phe-Gln-Trp-Ala-Val-Gly-His-Leu-NHEt, metal not drawn, reference compound], which tissue uptake at 1 h ([2]; PC-3 tumor, read-out: PC-3 tumor uptake) is on record?
**A.** 6.98 ± 1.36 %ID/g

**Q.** What about the tissue uptake at 1 h ([2]; adrenal glands, read-out: Adrenal glands uptake) of the same compound?
**A.** 2.07 ± 0.66 %ID/g

**Q.** What about the tissue uptake at 1 h ([2]; blood, read-out: Blood uptake) of the same compound?
**A.** 0.5 ± 0.09 %ID/g

**Q.** And the tissue uptake at 1 h ([2]; bone, read-out: Bone uptake)?
**A.** 0.12 ± 0.01 %ID/g

**Q.** What about the tissue uptake at 1 h ([2]; brain, read-out: Brain uptake) of the same compound?
**A.** 0.04 ± 0.01 %ID/g

**Q.** What about the tissue uptake at 1 h ([2]; fat, read-out: Fat uptake) of the same compound?
**A.** 0.05 ± 0.01 %ID/g

**Q.** And the tissue uptake at 1 h ([2]; heart, read-out: Heart uptake)?
**A.** 0.16 ± 0.02 %ID/g

**Q.** And the tissue uptake at 1 h ([2]; kidneys, read-out: Kidneys uptake)?
**A.** 2.26 ± 0.26 %ID/g

**Q.** And the tissue uptake at 1 h ([2]; large intestine, read-out: Large intestine uptake)?
**A.** 2.2 ± 0.89 %ID/g

**Q.** And the tissue uptake at 1 h ([2]; liver, read-out: Liver uptake)?
**A.** 2.1 ± 0.45 %ID/g

**Q.** And the tissue uptake at 1 h ([2]; lungs, read-out: Lungs uptake)?
**A.** 1.18 ± 0.23 %ID/g

**Q.** What about the tissue uptake at 1 h ([2]; muscle, read-out: Muscle uptake) of the same compound?
**A.** 0.18 ± 0.1 %ID/g

**Q.** And the tissue uptake at 1 h ([2]; pancreas, read-out: Pancreas uptake)?
**A.** 37.3 ± 6.9 %ID/g

**Q.** And the tissue uptake at 1 h ([2]; small intestine, read-out: Small intestine uptake)?
**A.** 6.03 ± 1.07 %ID/g

**Q.** What about the tissue uptake at 1 h ([2]; spleen, read-out: Spleen uptake) of the same compound?
**A.** 0.33 ± 0.17 %ID/g

**Q.** What about the tissue uptake at 1 h ([2]; stomach, read-out: Stomach uptake) of the same compound?
**A.** 1.42 ± 0.57 %ID/g

**Q.** And the tissue uptake at 1 h ([2]; testes, read-out: Testes uptake)?
**A.** 0.13 ± 0.01 %ID/g

**Q.** And the tissue to tissue ratio at 1 h ([2]; tumor and bone, read-out: Tumor/bone uptake ratio)?
**A.** 61 ± 15.5

**Q.** What about the tissue to tissue ratio at 1 h ([2]; tumor and kidney, read-out: Tumor/kidney uptake ratio) of the same compound?
**A.** 3.09 ± 0.51

**Q.** What about the tissue to tissue ratio at 1 h ([2]; tumor and muscle, read-out: Tumor/muscle uptake ratio) of the same compound?
**A.** 48.2 ± 24.9

**Q.** And the tissue to tissue ratio at 1 h ([2]; tumor and pancreas, read-out: Tumor/pancreas uptake ratio)?
**A.** 0.19 ± 0.03

**Q.** What about the tissue to tissue ratio at 1 h ([2]; tumor and whole blood, read-out: Tumor/blood uptake ratio) of the same compound?
**A.** 14.4 ± 3.88

**Q.** What about the logD [3] of the same compound?
**A.** -2.47 ± 0.09

**Q.** What about the “Excretion pathway in PET images” value [4] of the same compound?
**A.** excreted primarily through the renal pathway

**Q.** And the “Pancreas in PET images” value [4]?
**A.** high pancreas uptake

**Q.** For “D-Phe-Gln-Trp-Ala-Val-Gly-His-Leu-NHOH [C-terminal hydroxamate-derived GRPR-targeted antagonist reported by Devin et al]”, which Ki [5] is on record?
**A.** 5.8 nM

**Q.** What does the source list for “Ga-DOTA-Pip-D-Phe-Gln-Trp-Ala-Val-Gly-His-Leu-NHOH [Ga-LW02050]”?
**A.** Ki [6]: 8.53 ± 1.52 nM; Ca2+ mobilization, relative fluorescence units (RFUs = max − min) [1]: 25.8 ± 7.95 RFUs; Agonist/antagonist characteristics ([1]; 50 nM, calcium release assay): antagonist

**Q.** With “Ga-DOTA-pABzA-DIG-D-Phe-Gln-Trp-Ala-Val-Gly-His-Leu-NHEt [Ga-SB3, reference compound]” as the compound, how does the Ki [6] read?
**A.** 1.2 ± 0.31 nM

**Q.** Which “Ca2+ mobilization, relative fluorescence units (RFUs = max − min)” value [1] does the source give for “[D-Phe^6,Leu-NHEt^13,des-Met^14]Bombesin(6-14)” here?
**A.** 47.2 ± 6.61 RFUs

**Q.** For bombesin, which “Ca2+ mobilization, relative fluorescence units (RFUs = max − min)” value [1] is on record?
**A.** 371 ± 65.0 RFUs

Source: article PMC11243334, “Synthesis and Evaluation of the First ^68Ga-Labeled C-Terminal Hydroxamate-Derived Gastrin-Releasing Peptide Receptor-Targeted Tracers for Cancer Imaging with Positron Emission Tomography” (Molecules, 2024)
